By Kd is commonly meant the concentration at which binding is half-saturated. As a reminder, the koff is a measure of how fast the partners let go of each other. In general, kon refers to a measure of how fast the partners come together.

28 molecules from US20170145113A1 (Genentech, published 2017) can be followed below.

Substitutions are numbered along the chain they refer to. Numbers in names are those of the source.

Assay [1] has as its target T1, His-tagged human HtrA1 protease domain (human, UniProt Q92743 161-367).
T1 construct: His-tagged protease domain; also called huHtrA1-PD-His; huHtrA1-PD
Briefly: BIACORE T200 SPR; Fab analyte over huHtrA1-PD-His captured by anti-His antibody. Here is the method:
(§1) To determine the binding affinity of selected Fab variants for HtrA1, SPR measurement with a BIACORE™ T200 instrument was performed. Briefly, a series S sensor chip CM5 was activated with 1-EDC and NHS reagents according to the supplier's instructions, and anti-His antibody was coupled to achieve 200-300 response units (RU), then following by blocking un-reacted groups with 1 M ethanolamine. For kinetics measurements, approximately 5 nM of huHtrA1-PD-His was first injected at 10 μl/min flow rate to capture approximately 100 RU at 2 different flow cells (FC), except for FC1 (which served as a reference). Next, 5-fold serial dilutions of Fab in HBS-P buffer (0.01M HEPES pH 7.4, 0.15M NaCl, 0.005% surfactant P20) from low (0.8 nM) to high (50 nM) were injected (flow rate: 30 μl/min). The binding responses on HtrA1 were corrected by subtracting of RU from a blank flow cell. The sensorgram was recorded and subject to reference and buffer subtraction before evaluating by BIACORE® T200 Evaluation Software (version 2.0). Association rates (kₒₙ) and dissociation rates (koff) were calculated using a simple one-to-one Langmuir binding model. The equilibrium dissociation constant (KD) was calculated as the ratio of koff/kₒₙ.

The target of assay [2] is T1, His-tagged human HtrA1 protease domain. Briefly: SPR (BIACORE T200), huHtrA1-PD-His captured by anti-His, Fab injected. Here is the method: These combination mutants included both a variant light chain and a variant heavy chain. BIACORE™ kinetic analysis was performed (as described below in Section C) using the combination mutants.
as §1
In general terms: Surface plasmon resonance follows binding to a sensor surface in real time, without labels.

Assay [3] shares this target. Described as above. The protocol: as §1
The source holds these as a separate data set.

T1 sequence (Q92743 other isoform, or with tags, fused parts or gaps limits assumed): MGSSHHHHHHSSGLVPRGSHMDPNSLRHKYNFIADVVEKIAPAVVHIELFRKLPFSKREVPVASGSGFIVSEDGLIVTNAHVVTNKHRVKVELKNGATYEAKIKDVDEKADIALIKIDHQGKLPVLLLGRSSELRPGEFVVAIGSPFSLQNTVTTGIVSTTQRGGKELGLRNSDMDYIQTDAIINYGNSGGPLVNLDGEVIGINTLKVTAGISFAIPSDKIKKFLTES

B1: APEG.LC3.HC1 (Fab, V domains shown)
VH: EVQLVQSGAEVKKPGASVKVSCKASGYTFKDSEMHWVRQAPGQGLEWIGGVDPETEGAAYNQKFKGRATITRDTSTSTAYLELSSLRSEDTAVYYCTRGYDYDYALDYWGQGTLVTVSS
VL: DIQMTQSPSSLSASVGDRVTITCRASSSVEFIHWYQQKPGKAPKPLISATSNLASGVPSRFSGSGSGTDFTLTISSLQPEDFATYYCQQWSSAPWTFGQGTKVEIK
notes: single member of the group m82
In assay [1], B1 yielded a Kd of 106 pM, a koff of 4.55e-05 s⁻¹ and a kon of 428000 M⁻¹ s⁻¹.

B2: combination mutant LC7.HC3 Fab (Fab, V domains shown)
VH: B1 VH with T28K, K30T, E56D
VL: B1 VL with E30N, S91Y, A93N
notes: Fab
In the case of B2, in assay [2], the Kd amounted to 335 pM, the koff worked out at 0.000237 s⁻¹ and the kon was determined as 709000 M⁻¹ s⁻¹.

B3: h15H6.v2 variant LC3 (LC-N31E) Fab (Fab, V domains shown)
VH: B1 VH with K30T, E56D
VL: B1 VL with A93N
notes: Fab-Flag tag fusion from 293T cells
As to B3, in assay [3], the Kd was 480 pM, the koff came out at 0.00013 s⁻¹ and the kon was 270000 M⁻¹ s⁻¹. In addition, in assay [2], the Kd is 905 pM, the koff was found to be 0.000115 s⁻¹ and the kon was determined as 127000 M⁻¹ s⁻¹.

B4: combination mutant LC7.HC2 Fab (Fab, V domains shown)
VH: B1 VH with K30R, E56D
VL: B1 VL with E30N, S91Y, A93N
notes: Fab
On to B4, for which, in assay [2], the Kd is 95.5 pM, the koff was determined as 0.000189 s⁻¹ and the on-rate constant (kon) stood at 1.97e+06 M⁻¹ s⁻¹.

B5: APEG.LC37.HC13 (Fab, V domains shown)
VH: B1 VH with T28K
VL: B1 VL with S91Y
notes: as for B1
In assay [1], B5 returned a Kd of 95 pM, a koff of 4.09e-05 s⁻¹ and a kon of 431000 M⁻¹ s⁻¹.

B6: combination mutant LC7.HC1 Fab (Fab, V domains shown)
VH: B1 VH with E56D
VL: B1 VL with E30N, S91Y, A93N
notes: Fab
Take B6: in assay [2], the Kd stood at 772 pM, the koff was 0.000267 s⁻¹ and the kon was found to be 347000 M⁻¹ s⁻¹.

B7: h15H6.v2 variant LC7 (LC-S92Y) Fab (Fab, V domains shown)
VH: B1 VH with K30T, E56D
VL: B1 VL with E30N, S91Y, A93N
notes: as for B3
With B7, in assay [3], binding was characterised by a dissociation constant (Kd) of 335 pM, the koff was 0.000193 s⁻¹ and the on-rate (kon) worked out at 578000 M⁻¹ s⁻¹. Besides, in assay [2], the Kd is 1370 pM, the koff amounted to 0.000188 s⁻¹ and the kon worked out at 137000 M⁻¹ s⁻¹.

B8: combination mutant LC3.HC2 Fab (Fab, V domains shown)
VH: B1 VH with K30R, E56D
VL: B1 VL with A93N
notes: Fab
As to B8, in assay [2], the Kd turned out to be 302 pM, the koff is 0.000109 s⁻¹ and the kon was 362000 M⁻¹ s⁻¹.

B9: APEG.LC7.HC2 (Fab, V domains shown)
VH: B1 VH with K30R
VL: B1 VL with E30N, S91Y
In assay [1], B9 returned a Kd of 309 pM, a koff of 6.6e-05 s⁻¹ and a kon of 213000 M⁻¹ s⁻¹.

B10: h15H6.v2 variant LC6 (LC-Q89H) Fab (Fab, V domains shown)
VH: B1 VH with K30T, E56D
VL: B1 VL with E30N, Q88H, A93N
notes: as for B3
For B10, in assay [3], the equilibrium dissociation constant (Kd) was 642 pM, the dissociation rate constant (koff) worked out at 0.000251 s⁻¹ and the kon stood at 390000 M⁻¹ s⁻¹.

B11: combination mutant LC3.HC5 Fab (Fab, V domains shown)
VH: B1 VH with K30T, M34L, E56D
VL: B1 VL with A93N
notes: Fab
Regarding B11, in assay [2], the Kd stood at 176 pM, the off-rate (koff) was determined as 0.000102 s⁻¹ and the kon was 577000 M⁻¹ s⁻¹.

B12: combination mutant LC5.HC5 Fab (Fab, V domains shown)
VH: B1 VH with K30T, M34L, E56D
VL: B1 VL with E30N, N52E, A93N
notes: Fab
As to B12, in assay [2], the Kd was determined as 877 pM, the koff came to 0.000296 s⁻¹ and the kon came to 337000 M⁻¹ s⁻¹.

B13: APEG.LC37.HC23 (Fab, V domains shown)
VH: B1 VH with T28K, K30R
VL: B1 VL with S91Y
notes: as for B1
In assay [1], B13 displayed a Kd of 146 pM, a koff of 6.41e-05 s⁻¹ and a kon of 438000 M⁻¹ s⁻¹.

B14: combination mutant LC4.HC3 Fab (Fab, V domains shown)
VH: B1 VH with T28K, K30T, E56D
VL: B1 VL with E30N, N52H, A93N
notes: Fab
With B14, in assay [2], the Kd came out at 2180 pM, the off-rate (koff) turned out to be 0.00024 s⁻¹ and the kon was determined as 110000 M⁻¹ s⁻¹.

B15: APEG.LC3.HC2 (Fab, V domains shown)
VH: B1 VH with K30R
VL: B1 VL
In assay [1], B15 came in with an equilibrium dissociation constant (Kd) of 117 pM, a dissociation rate constant (koff) of 4.08e-05 s⁻¹ and a kon of 350000 M⁻¹ s⁻¹.

B16: h15H6.v2 variant LC8 (LC-S92K) Fab (Fab, V domains shown)
VH: B1 VH with K30T, E56D
VL: B1 VL with E30N, S91K, A93N
notes: as for B3
Take B16: in assay [3], the Kd was 1160 pM, the koff amounted to 0.000397 s⁻¹ and the kon was determined as 343000 M⁻¹ s⁻¹.

B17: APEG.LC7.HC3 (Fab, V domains shown)
VH: B1 VH with T28K, K30T
VL: B1 VL with E30N, S91Y
In assay [1], B17 gave a Kd of 332 pM, a koff of 7.93e-05 s⁻¹ and a kon of 239000 M⁻¹ s⁻¹.

B18: combination mutant LC5.HC2 Fab (Fab, V domains shown)
VH: B1 VH with K30R, E56D
VL: B1 VL with E30N, N52E, A93N
notes: Fab
Turning to B18, in assay [2], the Kd came to 719 pM, the koff came out at 0.000211 s⁻¹ and the on-rate (kon) was 294000 M⁻¹ s⁻¹.

B19: combination mutant LC4.HC2 Fab (Fab, V domains shown)
VH: B1 VH with K30R, E56D
VL: B1 VL with E30N, N52H, A93N
notes: Fab
Consider B19, for which, in assay [2], the Kd was found to be 7980 pM, the koff was determined as 0.000222 s⁻¹ and the kon turned out to be 27800 M⁻¹ s⁻¹.

B20: combination mutant LC3.HC3 Fab (Fab, V domains shown)
VH: B1 VH with T28K, K30T, E56D
VL: B1 VL with A93N
notes: Fab
Regarding B20, in assay [2], the Kd is 61.6 pM, the koff was determined as 4.93e-05 s⁻¹ and the kon turned out to be 801000 M⁻¹ s⁻¹.

B21: APEG.LC7.HC1 (Fab, V domains shown)
VH: B1 VH
VL: B1 VL with E30N, S91Y
In assay [1], B21 showed a Kd of 137 pM, a koff of 2.75e-05 s⁻¹ and a kon of 200000 M⁻¹ s⁻¹.

B22: h15H6.v2 variant LC10 (LC-F32V, LC-S92K) Fab (Fab, V domains shown)
VH: B1 VH with K30T, E56D
VL: B1 VL with E30N, F31V, S91K, A93N
notes: as for B3
Take B22: in assay [3], the Kd is 8420 pM, the koff stood at 0.00213 s⁻¹ and the kon came out at 253000 M⁻¹ s⁻¹.

B23: combination mutant LC5.HC1 Fab (Fab, V domains shown)
VH: B1 VH with E56D
VL: B1 VL with E30N, N52E, A93N
notes: Fab
Regarding B23, in assay [2], the Kd worked out at 1100 pM, the koff is 0.00023 s⁻¹ and the kon stood at 208000 M⁻¹ s⁻¹.

B24: combination mutant LC4.HC5 Fab (Fab, V domains shown)
VH: B1 VH with K30T, M34L, E56D
VL: B1 VL with E30N, N52H, A93N
notes: Fab
Take B24: in assay [2], the Kd stood at 1400 pM, the dissociation rate constant (koff) amounted to 0.000297 s⁻¹ and the kon came to 212000 M⁻¹ s⁻¹.

B25: combination mutant LC5.HC3 Fab (Fab, V domains shown)
VH: B1 VH with T28K, K30T, E56D
VL: B1 VL with E30N, N52E, A93N
notes: Fab
For B25, in assay [2], the Kd came to 1080 pM, the koff amounted to 0.000251 s⁻¹ and the on-rate constant (kon) came out at 233000 M⁻¹ s⁻¹.

B26: combination mutant LC4.HC1 Fab (Fab, V domains shown)
VH: B1 VH with E56D
VL: B1 VL with E30N, N52H, A93N
notes: Fab
On to B26, for which, in assay [2], the Kd was 852 pM, the koff came to 0.000228 s⁻¹ and the kon was found to be 268000 M⁻¹ s⁻¹.

B27: h15H6.v2 variant LC9 (LC-S93I) Fab (Fab, V domains shown)
VH: B1 VH with K30T, E56D
VL: B1 VL with E30N, S92I, A93N
notes: as for B3
In assay [3], B27 displayed a Kd of 2150 pM, a koff of 0.000404 s⁻¹ and a kon of 188000 M⁻¹ s⁻¹.

B28: combination mutant LC7.HC5 Fab (Fab, V domains shown)
VH: B1 VH with K30T, M34L, E56D
VL: B1 VL with E30N, S91Y, A93N
notes: Fab
For the molecule B28, in assay [2], the Kd was 745 pM, the koff is 0.000303 s⁻¹ and the kon was 406000 M⁻¹ s⁻¹.
